Test results published in patent US20150337051A1 (MORPHOTEK, published 2015).

Experiments:
[1] = biological target: T1, recombinant CHO TEM-1 Fc fusion protein (UniProt Q9HCU0); assay: ECL sandwich, competition: biotin-9G5 capture, sulfo-TAG-15F8 detection; MORAb-004 spike 12.5 µg/mL, TEM-1-Fc QC 10 ng/mL; recovery at 0 µg/mL MORAb-004: 105
T1 sequence (looked up): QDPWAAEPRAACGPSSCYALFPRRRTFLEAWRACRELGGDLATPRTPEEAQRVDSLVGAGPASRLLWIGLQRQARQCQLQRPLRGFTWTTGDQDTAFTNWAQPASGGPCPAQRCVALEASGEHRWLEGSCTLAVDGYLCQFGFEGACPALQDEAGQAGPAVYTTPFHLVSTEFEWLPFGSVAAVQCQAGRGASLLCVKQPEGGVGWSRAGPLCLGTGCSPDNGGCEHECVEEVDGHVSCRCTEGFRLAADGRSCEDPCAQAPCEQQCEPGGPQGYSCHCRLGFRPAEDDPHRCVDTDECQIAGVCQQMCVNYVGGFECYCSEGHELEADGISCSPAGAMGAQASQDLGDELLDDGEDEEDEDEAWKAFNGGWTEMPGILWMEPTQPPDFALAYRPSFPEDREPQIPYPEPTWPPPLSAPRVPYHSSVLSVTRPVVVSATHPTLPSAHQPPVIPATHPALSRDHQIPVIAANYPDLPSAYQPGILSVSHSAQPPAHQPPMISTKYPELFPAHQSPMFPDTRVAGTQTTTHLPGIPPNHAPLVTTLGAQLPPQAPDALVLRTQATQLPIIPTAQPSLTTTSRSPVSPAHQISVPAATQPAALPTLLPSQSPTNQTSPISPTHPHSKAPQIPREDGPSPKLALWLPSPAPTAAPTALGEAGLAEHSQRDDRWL

[2] = biological target: T1, recombinant CHO TEM-1 Fc fusion protein; assay: ECL sandwich, competition: biotin-9G5 capture, sulfo-TAG-15F8 detection; MORAb-004 spike 3.125 µg/mL, TEM-1-Fc QC 2 ng/mL; recovery at 0 µg/mL MORAb-004: 106
[3] = biological target: T1, recombinant CHO TEM-1 Fc fusion protein; assay: ECL sandwich, competition: biotin-9G5 capture, sulfo-TAG-15F8 detection; MORAb-004 spike 6.25 µg/mL, TEM-1-Fc QC 0.08 ng/mL; recovery at 0 µg/mL MORAb-004: 114
[4] = biological target: T2, TEM-1 in a native state on aortic smooth muscle cells (AoSMC) (UniProt Q9HCU0); assay: flow cytometry on AoSMC, primary antibody then FITC secondary; cells only 2.5, secondary only 3.9
T2 sequence (looked up): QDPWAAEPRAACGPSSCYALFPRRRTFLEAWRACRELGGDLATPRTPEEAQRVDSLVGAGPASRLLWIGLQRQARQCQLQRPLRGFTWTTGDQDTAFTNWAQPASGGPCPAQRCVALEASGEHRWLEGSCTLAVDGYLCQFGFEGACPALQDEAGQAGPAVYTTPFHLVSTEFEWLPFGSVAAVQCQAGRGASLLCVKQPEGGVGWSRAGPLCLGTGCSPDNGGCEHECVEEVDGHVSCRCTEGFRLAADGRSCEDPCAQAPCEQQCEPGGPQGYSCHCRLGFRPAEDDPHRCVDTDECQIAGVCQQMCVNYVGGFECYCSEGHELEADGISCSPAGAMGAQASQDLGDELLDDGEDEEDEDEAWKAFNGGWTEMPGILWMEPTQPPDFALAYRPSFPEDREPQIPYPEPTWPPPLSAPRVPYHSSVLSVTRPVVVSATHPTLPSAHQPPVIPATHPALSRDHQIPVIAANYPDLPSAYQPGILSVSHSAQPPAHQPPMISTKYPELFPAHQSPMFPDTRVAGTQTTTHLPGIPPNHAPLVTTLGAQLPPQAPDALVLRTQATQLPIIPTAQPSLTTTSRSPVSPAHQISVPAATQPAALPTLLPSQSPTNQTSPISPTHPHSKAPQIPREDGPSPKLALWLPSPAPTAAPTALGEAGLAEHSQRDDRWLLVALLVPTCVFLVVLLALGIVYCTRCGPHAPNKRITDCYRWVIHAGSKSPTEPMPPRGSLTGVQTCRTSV

[5] = biological target: T1, recombinant CHO TEM-1 Fc fusion protein; assay: ECL sandwich, competition: biotin-9G5 capture, sulfo-TAG-15F8 detection; MORAb-004 spike 3.125 µg/mL, TEM-1-Fc QC 10 ng/mL; recovery at 0 µg/mL MORAb-004: 105
[6] = biological target: T1, recombinant CHO TEM-1 Fc fusion protein; assay: ECL sandwich, competition: biotin-9G5 capture, sulfo-TAG-15F8 detection; MORAb-004 spike 50 µg/mL, TEM-1-Fc QC 0.08 ng/mL; recovery at 0 µg/mL MORAb-004: 114

B1: MORAb-004 (antibody, INN chains, looked up, V domains shown)
VH: QVQLQESGPGLVRPSQTLSLTCTASGYTFTDYVIHWVKQPPGRGLEWIGYINPYDDDTTYNQKFKGRVTMLVDTSSNTAYLRLSSVTAEDTAVYYCARRGNSYDGYFDYSMDYWGSGTPVTVSS
VL: DIQMTQSPSSLSASVGDRVTITCRASQNVGTAVAWLQQTPGKAPKLLIYSASNRYTGVPSRFSGSGSGTDYTFTISSLQPEDIATYYCQQYTNYPMYTFGQGTKVQIK
% Recovery of TEM-1 QCs spiked with MORAb-004 [1]: 91.2% | % Recovery of TEM-1 QCs spiked with MORAb-004 [2]: 96% | % Recovery of TEM-1 QCs spiked with MORAb-004 [3]: 101% | Geometric mean of resulting FACS plot [4]: 103 | % Recovery of TEM-1 QCs spiked with MORAb-004 [5]: 95.8% | % Recovery of TEM-1 QCs spiked with MORAb-004 [6]: 94.1%
